Test results from patent publication US20230365662A1.
Where a chain is given by its changes, count along the chain named. Names may count otherwise. “And” between values parts separate entries of the source, which are not always exact repeats. Identical values can stand only once.

B1: KB001 mouse Fab FASEBA VH K64Y (Fab, V domains shown)
VH: EVQLKQSGPGLVAPSQSLSITCTVSGFSLSIYSVHWVRQPPGKGLEWLGMIWGGGSSDYNSALYSRLSISKDNSKSQVFLKMNSLQTDDTAMYYCARNGNFYAMDYWGQGTSVTVSS
VL: QIVLTQSPAIMSASLGERVTMTCTASSSVSSSFLHWYQQKPGSSPQLWIYSTSNLASGVPARFSGSGSGTSYSLTISSMEAEDAATYYCHQYHHSPYIYTFGGGTKLEIK
B2: KB001 mouse Fab FASEBA VH K64S (Fab, V domains shown)
VH: B1 VH with Y64S
VL: B1 VL
B3: parental mouse (KB001) Fab FASEBA, VL variant L55R/S51G (Fab, V domains shown)
VH: B1 VH with Y64K
VL: B1 VL with S51G, L55R
B4: parental mouse (KB001) Fab FASEBA, VL variant S57R (Fab, V domains shown)
VH: B1 VH with Y64K
VL: B1 VL with S57R
B5: parental mouse (KB001) Fab FASEBA, VL variant A56P (Fab, V domains shown)
VH: B1 VH with Y64K
VL: B1 VL with A56P
B6: parental mouse (KB001) Fab FASEBA, VL variant S57I (Fab, V domains shown)
VH: B1 VH with Y64K
VL: B1 VL with S57I
B7: parental mouse (KB001) Fab FASEBA, VL variant S95N (Fab, V domains shown)
VH: B1 VH with Y64K
VL: B1 VL with S95N
B8: parental mouse (KB001) Fab FASEBA, VL variant S57L (Fab, V domains shown)
VH: B1 VH with Y64K
VL: B1 VL with S57L
B9: parental mouse (KB001) Fab FASEBA, VL variant S95A (Fab, V domains shown)
VH: B1 VH with Y64K
VL: B1 VL with S95A
B10: parental mouse (KB001) Fab FASEBA, VL variant L55Q (Fab, V domains shown)
VH: B1 VH with Y64K
VL: B1 VL with L55Q
B11: parental mouse (KB001) Fab FASEBA, VL variant S95W (Fab, V domains shown)
VH: B1 VH with Y64K
VL: B1 VL with S95W
B12: parental mouse (KB001) Fab FASEBA, VL variant S57E (Fab, V domains shown)
VH: B1 VH with Y64K
VL: B1 VL with S57E
B13: parental mouse (KB001) Fab FASEBA, VL variant A56S (Fab, V domains shown)
VH: B1 VH with Y64K
VL: B1 VL with A56S
B14: parental mouse (KB001) Fab FASEBA, VL variant H93N (Fab, V domains shown)
VH: B1 VH with Y64K
VL: B1 VL with H93N
B15: parental mouse (KB001) Fab FASEBA, VL variant H90W (Fab, V domains shown)
VH: B1 VH with Y64K
VL: B1 VL with H90W
B16: parental mouse (KB001) Fab FASEBA, VL variant S95T (Fab, V domains shown)
VH: B1 VH with Y64K
VL: B1 VL with S95T
B17: parental mouse (KB001) Fab FASEBA, VL variant S95Q (Fab, V domains shown)
VH: B1 VH with Y64K
VL: B1 VL with S95Q
B18: parental mouse (KB001) Fab FASEBA, VL variant S95F (Fab, V domains shown)
VH: B1 VH with Y64K
VL: B1 VL with S95F
B19: parental mouse (KB001) Fab FASEBA, VL variant L55S (Fab, V domains shown)
VH: B1 VH with Y64K
VL: B1 VL with L55S
B20: parental mouse (KB001) Fab FASEBA, VL variant A56N (Fab, V domains shown)
VH: B1 VH with Y64K
VL: B1 VL with A56N
B21: parental mouse (KB001) Fab FASEBA, VL variant S57N (Fab, V domains shown)
VH: B1 VH with Y64K
VL: B1 VL with S57N
B22: parental mouse (KB001) Fab FASEBA, VL variant L55H (Fab, V domains shown)
VH: B1 VH with Y64K
VL: B1 VL with L55H
B23: parental mouse (KB001) Fab FASEBA, VL variant S57A (Fab, V domains shown)
VH: B1 VH with Y64K
VL: B1 VL with S57A
B24: parental mouse (KB001) Fab FASEBA, VL variant Q91M (Fab, V domains shown)
VH: B1 VH with Y64K
VL: B1 VL with Q91M
B25: parental mouse (KB001) Fab FASEBA, VL variant Y92D (Fab, V domains shown)
VH: B1 VH with Y64K
VL: B1 VL with Y92D
B26: parental mouse (KB001) Fab FASEBA, VL variant S57F (Fab, V domains shown)
VH: B1 VH with Y64K
VL: B1 VL with S57F
B27: parental mouse (KB001) Fab FASEBA, VL variant Q91E (Fab, V domains shown)
VH: B1 VH with Y64K
VL: B1 VL with Q91E
B28: parental mouse (KB001) Fab FASEBA, VL variant H90L (Fab, V domains shown)
VH: B1 VH with Y64K
VL: B1 VL with H90L
B29: parental mouse (KB001) Fab FASEBA, VL variant A56R (Fab, V domains shown)
VH: B1 VH with Y64K
VL: B1 VL with A56R
B30: parental mouse (KB001) Fab FASEBA, VL variant S95E (Fab, V domains shown)
VH: B1 VH with Y64K
VL: B1 VL with S95E
B31: parental mouse (KB001) Fab FASEBA, VL variant S57W (Fab, V domains shown)
VH: B1 VH with Y64K
VL: B1 VL with S57W
B32: parental mouse (KB001) Fab FASEBA, VL variant H94Y (Fab, V domains shown)
VH: B1 VH with Y64K
VL: B1 VL with H94Y
B33: parental mouse (KB001) Fab FASEBA, VL variant S57K (Fab, V domains shown)
VH: B1 VH with Y64K
VL: B1 VL with S57K
B34: parental mouse (KB001) Fab FASEBA, VL variant H94F (Fab, V domains shown)
VH: B1 VH with Y64K
VL: B1 VL with H94F
B35: parental mouse (KB001) Fab FASEBA, VL variant A56M (Fab, V domains shown)
VH: B1 VH with Y64K
VL: B1 VL with A56M
B36: parental mouse (KB001) Fab FASEBA, VL variant A56Q (Fab, V domains shown)
VH: B1 VH with Y64K
VL: B1 VL with A56Q
B37: parental mouse (KB001) Fab FASEBA, VL variant S57M (Fab, V domains shown)
VH: B1 VH with Y64K
VL: B1 VL with S57M
B38: parental mouse (KB001) Fab FASEBA, VL variant A56V (Fab, V domains shown)
VH: B1 VH with Y64K
VL: B1 VL with A56V
B39: parental mouse (KB001) Fab FASEBA, VL variant S57Q (Fab, V domains shown)
VH: B1 VH with Y64K
VL: B1 VL with S57Q
B40: parental mouse (KB001) Fab FASEBA, VL variant Y92N (Fab, V domains shown)
VH: B1 VH with Y64K
VL: B1 VL with Y92N
B41: parental mouse (KB001) Fab FASEBA, VL variant A56T (Fab, V domains shown)
VH: B1 VH with Y64K
VL: B1 VL with A56T

Biological target: HRgpA-6H (Porphyromonas gingivalis) (UniProt P28784)
Assay: ELISA on coated HRgpA-6H; as to OD450nm: test concentration or dose not given here

Sequence of UniProt P28784 (P28784 228-991 limits assumed): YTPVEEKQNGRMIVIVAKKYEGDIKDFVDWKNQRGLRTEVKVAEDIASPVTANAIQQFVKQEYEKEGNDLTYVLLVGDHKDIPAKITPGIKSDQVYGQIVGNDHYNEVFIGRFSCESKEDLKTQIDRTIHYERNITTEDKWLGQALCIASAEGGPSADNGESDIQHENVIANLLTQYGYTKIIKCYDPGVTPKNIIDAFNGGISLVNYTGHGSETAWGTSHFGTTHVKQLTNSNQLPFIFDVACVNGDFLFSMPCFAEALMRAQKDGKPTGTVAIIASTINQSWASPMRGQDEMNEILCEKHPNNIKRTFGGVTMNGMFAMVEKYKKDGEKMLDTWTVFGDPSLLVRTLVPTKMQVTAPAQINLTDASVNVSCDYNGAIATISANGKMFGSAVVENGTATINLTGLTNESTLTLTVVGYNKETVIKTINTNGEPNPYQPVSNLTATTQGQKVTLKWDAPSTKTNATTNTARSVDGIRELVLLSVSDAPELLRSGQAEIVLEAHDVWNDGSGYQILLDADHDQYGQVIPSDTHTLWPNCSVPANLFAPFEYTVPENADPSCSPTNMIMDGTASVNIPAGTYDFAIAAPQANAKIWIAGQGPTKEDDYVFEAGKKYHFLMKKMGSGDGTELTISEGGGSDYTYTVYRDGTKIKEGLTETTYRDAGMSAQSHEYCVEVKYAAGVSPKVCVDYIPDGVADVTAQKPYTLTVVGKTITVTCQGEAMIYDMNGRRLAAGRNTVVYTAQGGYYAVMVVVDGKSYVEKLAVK

Row | Binder | OD450nm | Ratio OD(Variant)/OD(WT)
1 | B1 | 0.763 | 0.923
2 | B2 | 0.808 | 0.977

Biological target: HRgpA-6H (Porphyromonas gingivalis) (UniProt P28784)
Assay: ELISA, Fab FASEBA supernatant on coated HRgpA-6H

Row | Binder | OD450nm | Ratio OD(Variant)/OD(WT)
3 | B3 | 0.748 OD450nm | 0.955 ratio to WT
4 | B4 | 0.746 OD450nm | 0.915 ratio to WT
5 | B5 | 0.748 OD450nm | 0.917 ratio to WT
6 | B6 | 0.791 OD450nm | 0.97 ratio to WT
7 | B7 | 0.863 OD450nm and 0.884 OD450nm | 0.94 ratio to WT and 0.962 ratio to WT
8 | B8 | 0.781 OD450nm | 0.958 ratio to WT
9 | B9 | 0.83 OD450nm and 0.872 OD450nm | 0.904 ratio to WT and 0.949 ratio to WT
10 | B10 | 0.662 OD450nm | 0.845 ratio to WT
11 | B11 | 0.804 OD450nm and 0.79 OD450nm | 0.875 ratio to WT and 0.86 ratio to WT
12 | B12 | 0.751 OD450nm | 0.921 ratio to WT
13 | B13 | 0.772 OD450nm and 0.751 OD450nm and 0.774 OD450nm | 0.947 ratio to WT and 0.921 ratio to WT and 0.949 ratio to WT
14 | B14 | 0.857 OD450nm | 0.91 ratio to WT
15 | B15 | 0.763 OD450nm | 0.886 ratio to WT
16 | B16 | 0.871 OD450nm | 0.948 ratio to WT
17 | B17 | 0.893 OD450nm | 0.972 ratio to WT
18 | B18 | 0.837 OD450nm | 0.911 ratio to WT
19 | B19 | 0.655 OD450nm | 0.836 ratio to WT
20 | B20 | 0.712 OD450nm and 0.775 OD450nm | 0.873 ratio to WT and 0.95 ratio to WT
21 | B21 | 0.813 OD450nm | 0.997 ratio to WT
22 | B22 | 0.64 OD450nm | 0.817 ratio to WT

Row | Binder | OD450nm | Ratio OD(Variant)/OD(WT)
23 | B23 | 0.806 OD450nm | 0.988 ratio to WT
24 | B24 | 0.757 OD450nm | 0.879 ratio to WT
25 | B25 | 0.758 OD450nm | 0.805 ratio to WT
26 | B26 | 0.785 OD450nm and 0.787 OD450nm and 0.797 OD450nm | 0.963 ratio to WT and 0.965 ratio to WT and 0.977 ratio to WT
27 | B27 | 0.709 OD450nm and 0.694 OD450nm and 0.701 OD450nm | 0.823 ratio to WT and 0.806 ratio to WT and 0.814 ratio to WT
28 | B28 | 0.785 OD450nm and 0.694 OD450nm | 0.911 ratio to WT and 0.806 ratio to WT
29 | B29 | 0.728 OD450nm and 0.734 OD450nm and 0.751 OD450nm | 0.893 ratio to WT and 0.9 ratio to WT and 0.921 ratio to WT
30 | B30 | 0.855 OD450nm and 0.82 OD450nm | 0.931 ratio to WT and 0.893 ratio to WT
31 | B31 | 0.784 OD450nm | 0.961 ratio to WT
32 | B32 | 0.865 OD450nm | 0.942 ratio to WT
33 | B33 | 0.712 OD450nm | 0.873 ratio to WT
34 | B34 | 0.77 OD450nm | 0.838 ratio to WT
35 | B35 | 0.802 OD450nm and 0.701 OD450nm | 0.983 ratio to WT and 0.86 ratio to WT
36 | B36 | 0.705 OD450nm | 0.865 ratio to WT
37 | B37 | 0.745 OD450nm | 0.914 ratio to WT
38 | B38 | 0.794 OD450nm and 0.795 OD450nm | 0.974 ratio to WT and 0.975 ratio to WT
39 | B39 | 0.658 OD450nm | 0.807 ratio to WT
40 | B40 | 0.773 OD450nm | 0.821 ratio to WT
41 | B41 | 0.731 OD450nm | 0.896 ratio to WT
